Assay results published in paper PMC2813881, “The Mrs1 Splicing Factor Binds the bI3 Group I Intron at Each of Two Tetraloop-Receptor Motifs”.

Experiments:
[1] = target: T1, Mrs1 (yeast, UniProt P07266 1-363); test: filter binding; details: RNA folded in its own buffer (composition not given), 30 min at 37 C with Mrs1, SL and B5 at 8 mM MgCl2
T1 sequence: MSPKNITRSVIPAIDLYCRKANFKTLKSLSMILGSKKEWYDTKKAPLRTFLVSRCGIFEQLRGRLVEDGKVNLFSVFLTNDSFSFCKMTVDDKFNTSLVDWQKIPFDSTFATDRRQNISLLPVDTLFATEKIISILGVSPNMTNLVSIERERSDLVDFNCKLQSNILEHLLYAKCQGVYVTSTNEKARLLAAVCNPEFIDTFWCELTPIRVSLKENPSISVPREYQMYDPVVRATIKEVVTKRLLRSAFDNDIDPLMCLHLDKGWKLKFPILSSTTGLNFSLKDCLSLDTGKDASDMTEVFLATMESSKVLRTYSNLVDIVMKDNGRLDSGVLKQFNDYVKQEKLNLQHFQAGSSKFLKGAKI

[2] = target: T1, Mrs1; test: filter binding; 8 mM MgCl2; Hill ~1.5; Filter partitioning (nitrocellulose/Hybond), RNA folded in its own buffer (composition not given), 30 min at 37 C with Mrs1; SL and B5 at 8 mM MgCl2; RNA ~0.5 nM (large) or ~0.1 nM (SL, B5); details: protein: recombinant, chain copies: 2, label: internal 32P

bI3 group I intron RNA
K half ([1]; Hill 2.2, Filter partitioning (nitrocellulose/Hybond)): 9.7 nM

RNase P specificity domain RNA
K half ([1]; Hill 2.0, Filter partitioning (nitrocellulose/Hybond)): 230 nM

Azoarcus group I intron RNA
K half ([1]; Hill 1.8, Filter partitioning (nitrocellulose/Hybond)): 3 nM

B1: SL RNA (structured_RNA)
RNA: GGCUGACGAAGCGGUGCAGUGCUGUUUCAGCACUGCACCGCUUCGUCAGCC
apparent K (half saturation) ([2]; hairpin, 24 bp): 1300 nM

B2: B5 RNA (structured_RNA)
RNA: GGCUGACGAAGCGGUGCAGUGCUGUUUCAGCACUGCACCGAAAAACUUCGUCAGCC
apparent K (half saturation) ([2]; hairpin with 5 nt bulge): ~500 nM
